Assay [1] addresses T1, human calcitonin receptor (human, UniProt P30988 25-474).
T1 construct: whole, on cells; Used as cell membranes; also called hCTR; hCT
T1 sequence (looked up): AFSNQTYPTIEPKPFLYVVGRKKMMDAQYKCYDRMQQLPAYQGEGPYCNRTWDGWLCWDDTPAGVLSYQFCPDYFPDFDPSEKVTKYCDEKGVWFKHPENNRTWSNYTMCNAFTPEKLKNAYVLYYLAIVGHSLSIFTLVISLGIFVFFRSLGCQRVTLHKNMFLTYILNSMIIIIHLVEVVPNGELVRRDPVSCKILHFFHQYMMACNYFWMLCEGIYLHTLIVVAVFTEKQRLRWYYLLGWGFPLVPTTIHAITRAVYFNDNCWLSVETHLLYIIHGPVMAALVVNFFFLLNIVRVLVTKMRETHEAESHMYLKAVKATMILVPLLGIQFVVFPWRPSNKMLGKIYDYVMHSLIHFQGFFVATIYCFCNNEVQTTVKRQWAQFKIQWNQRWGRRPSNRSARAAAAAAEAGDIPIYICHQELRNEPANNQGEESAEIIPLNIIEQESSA
Briefly: ratio of hCTR IC50 to hAmylin-R IC50 (reference: human amylin receptor). The protocol:
The resulting pellet was resuspended, homogenized and centrifuged (20.000 rpm, 15 min) in a buffer containing 20 mM Na-HEPES and 0.1 mM EDTA (pH 7.4, buffer 2). The resulting pellet was resuspended in buffer 2 and protein concentration was measured (BCA protein Assay, Pierce). The homogenate was kept cold during the whole procedure. The membranes were kept at −80° C. until use. The assay was performed in a 384 well Optiplate (PerkinElmer) in a total volume of 40 ul. Membranes were mixed with SPA beads. Final concentration of membranes 35 ng/μL final and SPA beads was 0.05 mg/well. Test-compounds were dissolved in DMSO and further diluted in assay buffer (50 mM Hepes, pH 7.4, 1 mM CaCl2, 5 mM MgCl₂, 0.1% OA and 0.02% Tween20). […] The final mixture was incubated with shaking at 400 rpm for 120 min at 25° C. prior to centrifugation (1500 rpm, 10 min). Samples were analyzed on TopCounter™ (Packard). The IC₅₀ was calculated using (one site binding competition analysis) GraphPad Prism5 as a measure of receptor affinity.
Membranes were prepared in the following way; the cells were rinsed with PBS and incubated with Versene for approximately 5 min before harvesting. The cells were flushed with PBS and the cell-suspension was centrifuged for 5 min at 1000 rpm. Cells were homogenized (Ultrathurrax) in a buffer containing 20 mM Na-HEPES and 10 mM EDTA (pH 7.4) and centrifuged at 20.000 rpm for 15 min. The resulting pellet was resuspended, homogenized and centrifuged (20.000 rpm, 15 min) in a buffer containing 20 mM Na-HEPES and 0.1 mM EDTA (pH 7.4, buffer 2). The resulting pellet was resuspended in buffer 2 and protein concentration was measured (BCA protein Assay, Pierce). The homogenate was kept cold during the whole procedure. The membranes were kept at −80° C. until use. Assay was performed in a 384 well Optiplate (PerkinElmer) in a total volume of 40 ul. Membranes were mixed with SPA beads.

Assay [2] concerns the target T1, human calcitonin receptor. Briefly: SPA competition on BHK cell membranes, 125I-calcitonin as radioligand (Assay VII). Here is the method:
Membranes were prepared in the following way; the cells were rinsed with PBS and incubated with Versene for approximately 5 min before harvesting. The cells were flushed with PBS and the cell-suspension was centrifuged for 5 min at 1000 rpm. Cells were homogenized (Ultrathurrax) in a buffer containing 20 mM Na-HEPES and 10 mM EDTA (pH 7.4) and centrifuged at 20.000 rpm for 15 min. The resulting pellet was resuspended, homogenized and centrifuged (20.000 rpm, 15 min) in a buffer containing 20 mM Na-HEPES and 0.1 mM EDTA (pH 7.4, buffer 2). The resulting pellet was resuspended in buffer 2 and protein concentration was measured (BCA protein Assay, Pierce). The homogenate was kept cold during the whole procedure. The membranes were kept at −80° C. until use. Assay was performed in a 384 well Optiplate (PerkinElmer) in a total volume of 40 ul. Membranes were mixed with SPA beads. Final concentration of membranes 35 ng/μL final and Final concentration of SPA beads was 0.05 mg/well. Test-compounds were dissolved in DMSO and further diluted in assay buffer (50 mM Hepes, pH 7.4, 1 mM CaCl2, 5 mM MgCl₂, 0.1% OA and 0.02% Tween20). […] The final mixture was incubated for 120 min with shaking at 400 rpm at 25° C. prior to centrifugation (1500 rpm, 10 min). Samples were analyzed on TopCounter™ (Packard). The […] was calculated using (one site binding competition analysis) GraphPad Prism5 as a measure of receptor affinity.

Numbered stars: 1 amine (or outer) side, 2 acyl side, 3 side chain; on linkers, the order of the positions; unused ones are H or OH. Bridge positions count the residues as written; N and C are the ends. Side chains are listed from the residue outwards. Ends that are not written are not given here. * marks the point of attachment. C20 diacid = O=C(O)CCCCCCCCCCCCCCCCCCC(=O)*; γGlu = O=C(O)[C@H](CCC(=O)[*:2])N[*:1]; AEEA = NCCOCCOCC(=O)O

B1: N^ε1-[2-[2-[2-[[(4S)-4-carboxy-4-(19-carboxynonadecanoylamino)butanoyl]amino]ethoxy]ethoxy]acetyl]-[Ala14,Arg17,Pro21,Pro27,Pro31]-h-amylin (peptide)
peptide: K([AEEA-γGlu-C20 diacid])CNTATCATQRLAAFLRHSSPNFGAIPSSTPVGSNTY-NH2
modifications: disulfide 2-7; N-terminus assumed
SMILES: CC[C@H](C)[C@H](NC(=O)[C@H](C)NC(=O)CNC(=O)[C@H](Cc1ccccc1)NC(=O)[C@H](CC(N)=O)NC(=O)[C@@H]1CCCN1C(=O)[C@H](CO)NC(=O)[C@H](CO)NC(=O)[C@H](Cc1c[nH]cn1)NC(=O)[C@H](CCCNC(=N)N)NC(=O)[C@H](CC(C)C)NC(=O)[C@H](Cc1ccccc1)NC(=O)[C@H](C)NC(=O)[C@H](C)NC(=O)[C@H](CC(C)C)NC(=O)[C@H](CCCNC(=N)N)NC(=O)[C@H](CCC(N)=O)NC(=O)[C@@H](NC(=O)[C@H](C)NC(=O)[C@@H]1CSSC[C@H](NC(=O)[C@@H](N)CCCCNC(=O)COCCOCCNC(=O)CC[C@H](NC(=O)CCCCCCCCCCCCCCCCCCC(=O)O)C(=O)O)C(=O)N[C@@H](CC(N)=O)C(=O)N[C@@H]([C@@H](C)O)C(=O)N[C@@H](C)C(=O)N[C@@H]([C@@H](C)O)C(=O)N1)[C@@H](C)O)C(=O)N1CCC[C@H]1C(=O)N[C@@H](CO)C(=O)N[C@@H](CO)C(=O)N[C@H](C(=O)N1CCC[C@H]1C(=O)N[C@H](C(=O)NCC(=O)N[C@@H](CO)C(=O)N[C@@H](CC(N)=O)C(=O)N[C@H](C(=O)N[C@@H](Cc1ccc(O)cc1)C(N)=O)[C@@H](C)O)C(C)C)[C@@H](C)O
notes: also called compound 72
Turning to B1, the “Ratio hCT/hAmylin binding” value in assay [1] was 247. The IC50 – broadly, the concentration that gives 50% inhibition – in assay [2] was found to be 42.4 nM.

B2: N^ε1-[2-[2-[2-[[(4S)-4-carboxy-4-(19-carboxynonadecanoylamino)butanoyl]amino]ethoxy]ethoxy]acetyl]-[Arg17,Pro21,Pro27,Arg34]-h-amylin (peptide)
peptide: K([AEEA-γGlu-C20 diacid])CNTATCATQRLANFLRHSSPNFGAIPSSTNVGRNTY-NH2
modifications: disulfide 2-7; N-terminus assumed
SMILES: CC[C@H](C)[C@H](NC(=O)[C@H](C)NC(=O)CNC(=O)[C@H](Cc1ccccc1)NC(=O)[C@H](CC(N)=O)NC(=O)[C@@H]1CCCN1C(=O)[C@H](CO)NC(=O)[C@H](CO)NC(=O)[C@H](Cc1c[nH]cn1)NC(=O)[C@H](CCCNC(=N)N)NC(=O)[C@H](CC(C)C)NC(=O)[C@H](Cc1ccccc1)NC(=O)[C@H](CC(N)=O)NC(=O)[C@H](C)NC(=O)[C@H](CC(C)C)NC(=O)[C@H](CCCNC(=N)N)NC(=O)[C@H](CCC(N)=O)NC(=O)[C@@H](NC(=O)[C@H](C)NC(=O)[C@@H]1CSSC[C@H](NC(=O)[C@@H](N)CCCCNC(=O)COCCOCCNC(=O)CC[C@H](NC(=O)CCCCCCCCCCCCCCCCCCC(=O)O)C(=O)O)C(=O)N[C@@H](CC(N)=O)C(=O)N[C@@H]([C@@H](C)O)C(=O)N[C@@H](C)C(=O)N[C@@H]([C@@H](C)O)C(=O)N1)[C@@H](C)O)C(=O)N1CCC[C@H]1C(=O)N[C@@H](CO)C(=O)N[C@@H](CO)C(=O)N[C@H](C(=O)N[C@@H](CC(N)=O)C(=O)N[C@H](C(=O)NCC(=O)N[C@@H](CCCNC(=N)N)C(=O)N[C@@H](CC(N)=O)C(=O)N[C@H](C(=O)N[C@@H](Cc1ccc(O)cc1)C(N)=O)[C@@H](C)O)C(C)C)[C@@H](C)O
notes: also called compound 78
For B2, the “Ratio hCT/hAmylin binding” value in assay [1] was 60.7. The IC50 in assay [2] came to 36.5 nM.

B3: N^ε1-[2-[2-[2-[[(4S)-4-carboxy-4-(19-carboxynonadecanoylamino)butanoyl]amino]ethoxy]ethoxy]acetyl]-[Arg14,Arg17,Pro21,Pro27,Pro31]-h-amylin (peptide)
peptide: K([AEEA-γGlu-C20 diacid])CNTATCATQRLARFLRHSSPNFGAIPSSTPVGSNTY-NH2
modifications: disulfide 2-7; N-terminus assumed
SMILES: CC[C@H](C)[C@H](NC(=O)[C@H](C)NC(=O)CNC(=O)[C@H](Cc1ccccc1)NC(=O)[C@H](CC(N)=O)NC(=O)[C@@H]1CCCN1C(=O)[C@H](CO)NC(=O)[C@H](CO)NC(=O)[C@H](Cc1c[nH]cn1)NC(=O)[C@H](CCCNC(=N)N)NC(=O)[C@H](CC(C)C)NC(=O)[C@H](Cc1ccccc1)NC(=O)[C@H](CCCNC(=N)N)NC(=O)[C@H](C)NC(=O)[C@H](CC(C)C)NC(=O)[C@H](CCCNC(=N)N)NC(=O)[C@H](CCC(N)=O)NC(=O)[C@@H](NC(=O)[C@H](C)NC(=O)[C@@H]1CSSC[C@H](NC(=O)[C@@H](N)CCCCNC(=O)COCCOCCNC(=O)CC[C@H](NC(=O)CCCCCCCCCCCCCCCCCCC(=O)O)C(=O)O)C(=O)N[C@@H](CC(N)=O)C(=O)N[C@@H]([C@@H](C)O)C(=O)N[C@@H](C)C(=O)N[C@@H]([C@@H](C)O)C(=O)N1)[C@@H](C)O)C(=O)N1CCC[C@H]1C(=O)N[C@@H](CO)C(=O)N[C@@H](CO)C(=O)N[C@H](C(=O)N1CCC[C@H]1C(=O)N[C@H](C(=O)NCC(=O)N[C@@H](CO)C(=O)N[C@@H](CC(N)=O)C(=O)N[C@H](C(=O)N[C@@H](Cc1ccc(O)cc1)C(N)=O)[C@@H](C)O)C(C)C)[C@@H](C)O
notes: also called compound 64
On to B3, for which, in assay [1], the “Ratio hCT/hAmylin binding” value is 126. Besides, the IC50 in assay [2] came to 56 nM.

B4: N^ε1-[2-[2-[2-[[(4S)-4-carboxy-4-(19-carboxynonadecanoylamino)butanoyl]amino]ethoxy]ethoxy]acetyl]-[Arg14,Arg17,Pro21,Pro27]-h-amylin (peptide)
peptide: K([AEEA-γGlu-C20 diacid])CNTATCATQRLARFLRHSSPNFGAIPSSTNVGSNTY-NH2
modifications: disulfide 2-7; N-terminus assumed
SMILES: CC[C@H](C)[C@H](NC(=O)[C@H](C)NC(=O)CNC(=O)[C@H](Cc1ccccc1)NC(=O)[C@H](CC(N)=O)NC(=O)[C@@H]1CCCN1C(=O)[C@H](CO)NC(=O)[C@H](CO)NC(=O)[C@H](Cc1c[nH]cn1)NC(=O)[C@H](CCCNC(=N)N)NC(=O)[C@H](CC(C)C)NC(=O)[C@H](Cc1ccccc1)NC(=O)[C@H](CCCNC(=N)N)NC(=O)[C@H](C)NC(=O)[C@H](CC(C)C)NC(=O)[C@H](CCCNC(=N)N)NC(=O)[C@H](CCC(N)=O)NC(=O)[C@@H](NC(=O)[C@H](C)NC(=O)[C@@H]1CSSC[C@H](NC(=O)[C@@H](N)CCCCNC(=O)COCCOCCNC(=O)CC[C@H](NC(=O)CCCCCCCCCCCCCCCCCCC(=O)O)C(=O)O)C(=O)N[C@@H](CC(N)=O)C(=O)N[C@@H]([C@@H](C)O)C(=O)N[C@@H](C)C(=O)N[C@@H]([C@@H](C)O)C(=O)N1)[C@@H](C)O)C(=O)N1CCC[C@H]1C(=O)N[C@@H](CO)C(=O)N[C@@H](CO)C(=O)N[C@H](C(=O)N[C@@H](CC(N)=O)C(=O)N[C@H](C(=O)NCC(=O)N[C@@H](CO)C(=O)N[C@@H](CC(N)=O)C(=O)N[C@H](C(=O)N[C@@H](Cc1ccc(O)cc1)C(N)=O)[C@@H](C)O)C(C)C)[C@@H](C)O
notes: also called compound 82
With B4, in assay [1], the “Ratio hCT/hAmylin binding” value worked out at 140. For the same molecule, the 50% inhibitory concentration (IC50) in assay [2] was 88.8 nM.

The values above are taken from US20140087995A1 (published 2014).
